Results as given in publication PMC8254758 (Structure (London, England : 1993), 2021).
Positions count from the first letter of the chain named. Names may count otherwise.

Tests used:
[1] = molecular target: full-length SPARC (SPARC_C1) and the SPARC FS-EC domains (SPARC_C2); assay: fluorescence polarisation
[2] = molecular target: rat NLGN2(+A) extracellular domain (Val43-His612, with splice insert SSA) (rat) (UniProt Q62888); assay: SPR
[3] = molecular target: T1, rat NLGN2(+A) extracellular domain (Val43-His612, with splice insert SSA) (rat, UniProt Q62888-1 43-612); assay: SPR
T1 sequence (Q62888 43-612): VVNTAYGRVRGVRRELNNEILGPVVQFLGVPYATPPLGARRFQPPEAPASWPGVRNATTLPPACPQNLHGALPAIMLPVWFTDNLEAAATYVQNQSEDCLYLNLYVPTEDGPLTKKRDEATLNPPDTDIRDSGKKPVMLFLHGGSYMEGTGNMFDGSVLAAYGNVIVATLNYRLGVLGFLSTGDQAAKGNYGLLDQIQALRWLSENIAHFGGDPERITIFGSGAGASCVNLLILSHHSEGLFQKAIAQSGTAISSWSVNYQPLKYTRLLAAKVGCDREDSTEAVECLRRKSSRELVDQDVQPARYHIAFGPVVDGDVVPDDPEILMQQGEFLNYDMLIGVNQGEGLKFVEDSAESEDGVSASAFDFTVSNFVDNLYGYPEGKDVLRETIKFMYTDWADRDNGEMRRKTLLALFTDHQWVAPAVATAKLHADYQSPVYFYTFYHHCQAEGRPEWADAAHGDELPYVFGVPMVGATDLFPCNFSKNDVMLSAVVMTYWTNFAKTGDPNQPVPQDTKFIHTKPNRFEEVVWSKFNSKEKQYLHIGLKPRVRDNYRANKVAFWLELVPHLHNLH

[4] = molecular target: T1, rat NLGN2(+A) extracellular domain …; assay: fluorescence polarisation

Chain of rat NLGN2(+A) extracellular domain (Val43-His612, with splice insert SSA) (rat) (Q62888 43-612): as above

rat NLGN2(+A) extracellular domain (Val43-His612, with splice insert SSA) (from UniProt Q62888-1 43-612) (domain or fragment)
Kd [1]: 37 to 96 nM

bovine neurexin 1α L1L6 (M1-S1339, without splice inserts) (domain or fragment)
Kd [2]: 3.8 nM

B1: hevin_C4 (L302-F664) (domain or fragment, human, UniProt Q14515 302-664, looked up)
chain: LEAISNHKETEEKTVSEALLMEPTDDGNTTPRNHGVDDDGDDDGDDGGTDGPRHSASDDYFIPSQAFLEAERAQSIAYHLKIEEQREKVHENENIGTTEPGEHQEAKKAENSSNEEETSSEGNMRVHAVDSCMSFQCKRGHICKADQQGKPHCVCQDPVTCPPTKPLDQVCGTDNQTYASSCHLFATKCRLEGTKKGHQLQLDYFGACKSIPTCTDFEVIQFPLRMRDWLKNILMQLYEANSEHAGYLNEKQRNKVKKIYLDEKRLLAGDHPIDLLLRDFKKNYHMYVYPVHWQFSELDQHPMDRVLTHSELAPLRASLVPMEHCITRFFEECDPNKDKHITLKEWGHCFGIKEEDIDENLLF
binding result [3]: binds

B2: human MDGA1 Ig1-Ig2 (MDGA1_C8, Y22-T237) (domain or fragment, UniProt Q8NFP4-1 22-237, looked up)
chain: YAPAQAQIVHAGQACVVKEDNISERVYTIREGDTLMLQCLVTGHPRPQVRWTKTAGSASDKFQETSVFNETLRIERIARTQGGRYYCKAENGVGVPAIKSIRVDVQYLDEPMLTVHQTVSDVRGNFYQEKTVFLRCTVNSNPPARFIWKRGSDTLSHSQDNGVDIYEPLYTQGETKVLKLKNLRPQDYASYTCQVSVRNVCGIPDKAITFRLTNTT
binding result [4]: binds

B3: MDGA1_C8 Mut4 (MDGA1 Ig1-Ig2 R105A, Y107A, R123A, F154A, R156A, Y187A) (domain or fragment, human, UniProt Q8NFP4-1 22-237, looked up)
chain: B2 chain with R84A, Y86A, R102A, F133A, R135A, Y166A
binding result [4]: binds
